± gives the standard deviation of the averaged measurements.
B1: library; a variant is named by its letters at N, in order (parent)
chain: GCUGUCACCGGUGUAUUACCCUAGUGGUCGACCGGUCUGAUGAGUCUNNNNNNAGACGAAACAGC

Key:
hypoxanthine [1] = variants of: B1; assay: FACS-Seq fitted mean relative fluorescence mCherry/BFP without ligand (log10 relative fluorescence); ligand: hypoxanthine (xanthine aptamer); higher = higher reporter protein expression; conditions: HEK293T, ligand present: no
Protocol: (§1)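 Hammerhead (sTRSV) ribozyme switch libraries with a ligand aptamer grafted on stem I and a randomized N4-6 loop II, cloned into the 3' UTR of mCherry and transiently transfected into HEK293T cells; RNA-Seq 72 h post transfection with ligand added 1 h before transfection; RNA read count / plasmid DNA read count normalized to the non-cleaving sTRSVctl (x100), log10; sequences with >100 DNA reads. FACS-Seq: lentiviral library sorted into 6 bins after 48 h ligand, log-normal fit mean of mCherry/BFP scaled to controls. Printed sequences are partial switch sequences.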

hypoxanthine [2] = variants of: B1; assay: normalized RNA/DNA level with ligand (relative to sTRSVctl = 100) (log10 (% of sTRSVctl)); ligand: hypoxanthine (xanthine aptamer); higher = less ribozyme self-cleavage, higher mRNA level; conditions: ligand concentration (+) RNA-Seq: 5 mM, HEK293T, reporter: mCherry (pCS4076), ligand present: yes
Protocol: as §1

hypoxanthine [3] = variants of: B1; assay: normalized RNA/DNA level without ligand (relative to sTRSVctl = 100) (log10 (% of sTRSVctl)); ligand: hypoxanthine (xanthine aptamer); higher = less ribozyme self-cleavage, higher mRNA level; conditions: HEK293T, reporter: mCherry (pCS4076), ligand present: no
Protocol: as §1

hypoxanthine [4] = variants of: B1; assay: FACS-Seq fitted mean relative fluorescence mCherry/BFP with ligand (log10 relative fluorescence); ligand: hypoxanthine (xanthine aptamer); ligand concentration (+) FACS-Seq: 5 mM; higher = higher reporter protein expression; conditions: HEK293T, ligand present: yes
Protocol: as §1

| Variant | FACS-Seq fitted mean (log10) (hypoxanthine [1]) | normalized RNA/DNA level with ligand (log10) (hypoxanthine [2]) | normalized RNA/DNA level without ligand (log10) (hypoxanthine [3]) | FACS-Seq fitted mean (log10) (hypoxanthine [4]) |
| --- | --- | --- | --- | --- |
| UAACGU | 0.145 ± 0.021 | 1.914 ± 0.01 | 1.61 ± 0.038 | 0.365 ± 0.051 |
| UAACGA | 0.432 ± 0.054 | 1.91 ± 0.033 | 1.6909 ± 0.0004 | 0.324 ± 0.072 |
| UAACGG | 0.07847 ± 0.00013 | 1.82 ± 0.083 | 1.376 ± 0.0076 | 0.473 ± 0.081 |
| UAACGC | 0.329 ± 0.043 | 1.92 ± 0.058 | 1.74 ± 0.031 | 0.365 ± 0.011 |
| CAAAGU | 0.529 ± 0.021 | 1.89 ± 0.0058 | 1.82 ± 0.033 | 0.571 ± 0.0084 |
| UAAGAG | 0.312 ± 0.071 | 1.833 ± 0.013 | 1.528 ± 0.011 | 0.422 ± 0.032 |
| UAAGAA | 0.349 ± 0.3 | 1.91 ± 0.025 | 1.68 ± 0.011 | 0.395 ± 0.051 |
| UAAGAC | 0.419 ± 0.024 | 1.87 ± 0.05 | 1.82 ± 0.035 | 0.507 ± 0.024 |
| AAACCC | 0.474 ± 0.095 | 1.95 ± 0.022 | 1.833 ± 0.0068 | 0.431 ± 0.021 |
| AAACCU | 0.484 ± 0.082 | 1.94 ± 0.033 | 1.87 ± 0.02 | 0.2749 ± 0.00055 |
| AAACCG | 0.278 ± 0.022 | 1.8 ± 0.029 | 1.37 ± 0.029 | 0.73 ± 0.045 |
| AAACCA | 0.0882 ± 0.014 | 1.924 ± 0.014 | 1.81 ± 0.016 | 0.122 ± 0.038 |
| GAACGG | -0.137 ± 0.019 | 1.74 ± 0.081 | 1.22 ± 0.085 | 0.484 ± 0.059 |
| GAACGC | 0.366 ± 0.038 | 1.85 ± 0.038 | 1.592 ± 0.0033 | 0.684 ± 0.031 |
| GAACGA | 0.281 ± 0.023 | 1.91 ± 0.049 | 1.62 ± 0.046 | 0.454 ± 0.011 |
| UAACAG | 0.366 ± 0.019 | 1.849 ± 0.012 | 1.5574 ± 0.00043 | 0.581 ± 0.031 |
| UAACAA | -0.143 ± 0.032 | 1.9154 ± 0.0012 | 1.7546 ± 0.00028 | -0.012 ± 0.012 |
| GAAGGG | -0.0424 ± 0.023 | 1.806 ± 0.01 | 1.324 ± 0.0061 | 0.431 ± 0.059 |

| Variant | FACS-Seq fitted mean (log10) (hypoxanthine [1]) | normalized RNA/DNA level with ligand (log10) (hypoxanthine [2]) | normalized RNA/DNA level without ligand (log10) (hypoxanthine [3]) | FACS-Seq fitted mean (log10) (hypoxanthine [4]) |
| --- | --- | --- | --- | --- |
| GAAGGA | 0.247 ± 0.034 | 1.92 ± 0.021 | 1.64 ± 0.031 | 0.559 ± 0.021 |
| GAACCG | 0.156 ± 0.11 | 1.9 ± 0.08 | 1.48 ± 0.052 | 0.296 ± 0.017 |
| GAACCA | 0.493 ± 0.094 | 1.948 ± 0.018 | 1.816 ± 0.014 | 0.365 ± 0.0063 |
| CAAUAA | 0.566 ± 0.035 | 1.89 ± 0.04 | 1.654 ± 0.0078 | 0.578 ± 0.07 |
| CAAUAC | 0.32 ± 0.022 | 1.93 ± 0.069 | 1.767 ± 0.01 | 0.507 ± 0.0056 |
| GAAAUG | 0.0921 ± 0.028 | 1.86 ± 0.075 | 1.44 ± 0.035 | 0.497 ± 0.047 |
| GAAAUA | 0.105 ± 0.023 | 1.92 ± 0.055 | 1.85 ± 0.028 | 0.082 ± 0.037 |
| AAACUG | 0.227 ± 0.039 | 1.822 ± 0.0094 | 1.43 ± 0.051 | 0.46 ± 0.021 |
| AAACUU | 0.777 ± 0.048 | 1.92 ± 0.011 | 1.856 ± 0.0063 | 0.674 ± 0.075 |
| CAAAUA | 0.317 ± 0.014 | 1.9 ± 0.06 | 1.7391 ± 0.00044 | 0.196 ± 0.037 |
| CAAAUC | 0.445 ± 0.1 | 1.95 ± 0.039 | 1.927 ± 0.0086 | 0.495 ± 0.037 |
| AAAAUU | 0.401 ± 0.01 | 1.93 ± 0.04 | 1.86 ± 0.041 | 0.491 ± 0.064 |
| AAAAUG | 0.362 ± 0.024 | 1.857 ± 0.017 | 1.51 ± 0.044 | 0.671 ± 0.053 |
| UAAGCG | -0.442 ± 0.031 | 1.909 ± 0.0091 | 1.6 ± 0.024 | 0.233 ± 0.018 |
| CAAACC | 0.631 ± 0.0022 | 1.96 ± 0.046 | 1.867 ± 0.0027 | 0.622 ± 0.027 |
| UAACCG | 0.631 ± 0.023 | 1.95 ± 0.04 | 1.68 ± 0.033 | 0.756 ± 0.013 |
| UAACCC | 0.667 ± 0.078 | 1.94 ± 0.08 | 1.856 ± 0.0018 | 0.767 ± 0.065 |
| GAAUAA | 0.317 ± 0.056 | 1.91 ± 0.04 | 1.78 ± 0.0034 | 0.497 ± 0.03 |
